Data set [1] deals with the molecule itself. In words: SDS-PAGE and Western blot. (In general: A western blot detects proteins with antibodies after separation by electrophoresis.)
The target in data set [2] is T1, Hfp N-terminal RRMs (half pint, PUF60 homolog) (UniProt Q8T6B9 110-326).
T1 sequence: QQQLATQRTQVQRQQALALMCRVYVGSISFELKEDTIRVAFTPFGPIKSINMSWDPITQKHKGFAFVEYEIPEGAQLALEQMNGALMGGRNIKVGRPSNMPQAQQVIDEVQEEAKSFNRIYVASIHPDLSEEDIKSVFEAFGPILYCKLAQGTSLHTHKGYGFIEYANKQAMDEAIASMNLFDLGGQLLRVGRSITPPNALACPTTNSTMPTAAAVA
In words: EMSA. (In general: In EMSA bound probe runs differently from free probe, usually more slowly.)

This is an account of results in publication doi:10.1101/2020.06.30.179986 (bioRxiv, 2020).

B1: recombinant protein composed of the two N-terminal RNA Recognition Motifs (RRM) of Half pint (Hfp) (domain or fragment, Drosophila, UniProt Q8T6B9 110-326, looked up)
chain: T1 sequence
By stoichiometry N is commonly meant a count of units in the complex or per binding partner. Consider B1, for which, in data set [1], the “stoichiometry N” value was determined as 2.

B2: act57B PT (ssRNA)
RNA: UCUUCCCCUC
With B2, the binding result in data set [2] is reported as “binds”.

B3: Negative control scramble (ssRNA)
RNA: UACGUACGUA
For B3, the binding result in data set [2] was “no binding”.

B4: Positive control (Drosophila consensus polypyrimidine-rich sequence) (ssRNA)
RNA: UUUUUCUCUU
Regarding B4, the binding result in data set [2] is given as “binds”.
